T1: biotinylated-MADCAM-1 antigen (human, UniProt Q13477 19-317, limits assumed, biotinylated (site not stated))
T1 construct: The BLI paragraph says only 'biotinylated-MADCAM-1 antigen'; also called mucosal addressin cell adhesion molecule 1
T1 sequence (looked up): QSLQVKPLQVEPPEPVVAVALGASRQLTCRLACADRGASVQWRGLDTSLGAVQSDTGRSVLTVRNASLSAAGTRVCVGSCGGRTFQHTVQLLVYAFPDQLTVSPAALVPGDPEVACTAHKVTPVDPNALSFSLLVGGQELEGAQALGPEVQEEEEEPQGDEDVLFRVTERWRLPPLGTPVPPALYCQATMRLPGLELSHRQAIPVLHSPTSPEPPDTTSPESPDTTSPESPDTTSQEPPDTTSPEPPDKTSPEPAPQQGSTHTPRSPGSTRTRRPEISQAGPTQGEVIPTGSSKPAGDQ

B1: MAdCAM1 scFv 8.2 (scFv)
scFv: EVQLVESGGGLVQPGGSLRLSCAASGFTLSSSYYMYWVRQAPGKGLEWVSVIYAGDGNTYYASWAKGRFTISRDNSKNTLYLQMNSLRAEDTAVYYCARGYVGYGYAIDLWGQGTLVTVSSGGGGSGGGGSGGGGSAIQLTQSPSSLSASVGDRVTITCQASQSIYSSLAWYQQKPGKAPKLLIYYASILPSGVPSRFSGSGSGTDFTLTISSLQPEDFATYYCQATTYDSTYPNAFGGGTKVEIK
notes: Humanized rabbit-derived scFv, VH-(G4S)3-VL
B2: MAdCAM1 scFv 8.5 (scFv)
scFv: B1 scFv with E1Q, L11V, G16R, S50A, A137D, L140M, S146T, D206E, E217D
notes: as for B1
B3: MAdCAM1 scFv 8.4 (scFv)
scFv: B1 scFv with V5L, V51A
notes: as for B1
B4: MAdCAM1 scFv 8.6 (scFv)
scFv: B1 scFv with E1Q, L11V, G16R, S50A
notes: as for B1
B5: MAdCAM1 scFv 8.7 (scFv)
scFv: B1 scFv with S7T, V12I, A137D, L140M, S146T, D206E, E217D
notes: as for B1
B6: MAdCAM1 scFv 8.1 (scFv)
scFv: B1 scFv with A137D, L140M, S146T, D206E, E217D
notes: as for B1
B7: MAdCAM1 scFv 8.8 (scFv)
scFv: B1 scFv with S7T, V12I
notes: as for B1
B8: MAdCAM1 scFv 17.7 (scFv)
scFv: EVQLVESGGGLVKPGGSLRLSCAASGFSFSSTYYMCWVRQAPGKGLEWVSCIYTGSGNTDYASWAKGRFTISRDNAKNSLYLQMNSLRAEDTAVYYCARGGIVDSYFTYFDLWGQGTLVTVSSGGGGSGGGGSGGGGSDIQMTQSPSTLSASVGDRVTITCQASESIFSNLAWYQQKPGKAPKLLIYWASTLASGVPSRFSGSGSGTEFTLTISSLQPDDFATYYCQSYVYSSSSSNDFGGGTKVEIK
notes: as for B1
B9: MAdCAM1 scFv 17.1 (scFv)
scFv: B8 scFv with K13Q, D74H, A76S, S79T
notes: as for B1
B10: MAdCAM1 scFv 17.5 (scFv)
scFv: B8 scFv with E1Q, L11V, K13Q, G16R, S50A, A76S, K77T, S79T, Y81F
notes: as for B1
B11: MAdCAM1 scFv 17.3 (scFv)
scFv: B8 scFv with E1Q, V5L, V38I
notes: as for B1
B12: MAdCAM1 scFv 32.6 (scFv)
scFv: QVQLVESGGGVVQPGRSLRLSCAASGFSFSSSYWICWVRQAPGKGLEWVACIYGGSSGATYYANWAKGRFTISRDNSTNTLFLQMNSLRAEDTAVYYCARSGSTTSGGVYRWYFNLWGQGTLVTVSSGGGGSGGGGSGGGGSDIQMTQSPSSLSASVGDRVTITCQASENIYNLLAWYQQKPGKAPKLLIYDASNLETGVPSRFSGSGSGTDFTFTISSLQPEDIATYYCQFTYYGGTYESAFGGGTKVEIK
notes: as for B1
B13: MAdCAM1 scFv 32.3 (scFv)
scFv: EVQLLESGGGLVQPGGSLRLSCAASGFSFSSSYWICWVRQAPGKGLEWVSCIYGGSSGATYYANWAKGRFTISRDNSKNTLYLQMNSLRAEDTAVYYCARSGSTTSGGVYRWYFNLWGQGTLVTVSSGGGGSGGGGSGGGGSDIQMTQSPSSLSASVGDRVTITCQASENIYNLLAWYQQKPGKVPKLLIYDASTLQSGVPSRFSGSGSGTDFTLTISSLQPEDVATYYCQFTYYGGTYESAFGGGTKVEIK
notes: as for B1
B14: MAdCAM1 scFv 32.4 (scFv)
scFv: B13 scFv with V185A, T195N, Q197E, S198T, L215F, V225I
notes: as for B1
B15: MAdCAM1 scFv 32.5 (scFv)
scFv: B12 scFv with A185V, N195T, E197Q, T198S, F215L, I225V
notes: as for B1
B16: MAdCAM1 scFv 32.7 (scFv)
scFv: B13 scFv with L5V, D75H
notes: as for B1
B17: MAdCAM1 scFv 32.8 (scFv)
scFv: B12 scFv with Q1E, V11L, R16G, A50S, D75H, T78K, F82Y
notes: as for B1
B18: MAdCAM1 scFv 2.1 (scFv)
scFv: QVQLLESGGGLVKPGGSLRLSCAASGFSFSSGYYMCWIRQAPGKGLEWVSCIYADSSYTYYASWAKGRFTISRDNAKNSLYLQMNSLRAEDTAVYYCARSNGDYFYGMDLWGQGTLVTVSSGGGGSGGGGSGGGGSDIQMTQSPSSLSASVGDRVTITCQASQSINSWLSWYQQKPGKAPKLLIYRASTLASGVPSRFSGSGSGTDFTFTISSLQPEDIATYYCQSNYYSTSTAFGGGTKVEIK
notes: as for B1
B19: MAdCAM1 scFv 2.2 (scFv)
scFv: B18 scFv with D137A, F209L, I219F
notes: as for B1
B20: MAdCAM1 scFv 10.7 (scFv)
scFv: EVQLLESGGGLVQPGGSLRLSCAASGIDFSGYHYICWVRQAPGKGLEWVSCIYTVSSGIWYATWAKGRFTISRDNSKNTLYLQMNSLRAEDTAVYYCARDDADVSGYWFDLWGQGTLVTVSSGGGGSGGGGSGGGGSDIQMTQSPSSLSASVGDRVTITCQASQSISNLLAWYQQKPGKAPKLLIYKASTLASGVPSRFSGSGSGTDFTFTISSLQPEDIATYYCQQGITNNGIDHGFGGGTKVEIK
notes: as for B1
B21: MAdCAM1 scFv 10.3 (scFv)
scFv: B20 scFv with L5V, Q13K, S76A, T79S
notes: as for B1
B22: MAdCAM1 scFv 10.2 (scFv)
scFv: QVQLVESGGGVVQPGRSLRLSCAASGIDFSGYHYICWVRQAPGKGLEWVACIYTVSSGIWYATWAKGRFTISRDNSTNTLFLQMNSLRAEDTAVYYCARDDADVSGYWFDLWGQGTLVTVSSGGGGSGGGGSGGGGSAIQLTQSPSSLSASVGDRVTITCQASQSISNLLAWYQQKPGKAPKLLIYKASTLASGVPSRFSGSGSGTDFTLTISSLQPEDFATYYCQQGITNNGIDHGFGGGTKVEIK
notes: as for B1
B23: MAdCAM1 scFv 10.8 (scFv)
scFv: B20 scFv with D138A, M141L, F210L, I220F
notes: as for B1
B24: MAdCAM1 scFv 10.1 (scFv)
scFv: B22 scFv with A138D, L141M, L210F, F220I
notes: as for B1

We go through 24 molecules from patent US20240158459A1 (KYVERNA THERAPEUTICS, published 2024).

Residue numbers refer to the chain shown, from its start. Names and notes keep the numbering of the source.

The test addresses T1, biotinylated-MADCAM-1 antigen. Kind of test: BLI, biotinylated MADCAM-1 on streptavidin biosensors, scFv titrated, global 1:1 fit. As for the experimental part: Binding affinity (KD) of MADCAM-1 scFv antibodies from Table 2 was measured using biolayer interferometry (See also FIG. 6). Streptavidin biosensors were loaded for 5 seconds with 10 Tg/mL biotinylated-MADCAM-1 antigen followed by acquisition of the baseline signal in phosphate buffer saline supplemented with bovine serum albumin and sodium azide. For the association step loaded probes were incubated for 250 seconds with a titration of anti-MADCAM-1 scFv antibodies at concentrations generally between 0 nM and 2 TM. This was followed by a dissociation step in buffer lacking anti-MADCAM-1 scFv for 250 seconds. Experimental data was normalized to a reference probe and high-frequency noise was removed by Savitzky-Golay filtering. On and off-rate constants were determined using a globally fitted 1:1 binding model.
For B1, the Kd turned out to be 78 nM, the off-rate constant (koff) came out at 0.00295 s⁻¹ and the on-rate (kon) amounted to 37800 M⁻¹ s⁻¹.
The matching figures for B2: 114 nM, 0.00158 s⁻¹ and 13800 M⁻¹ s⁻¹.
The matching figures for B3: 30.9 nM, 0.000393 s⁻¹ and 12700 M⁻¹ s⁻¹.
Taken in the same sequence, the figures for B4 were 84.8 nM, 0.00218 s⁻¹ and 25700 M⁻¹ s⁻¹.
B5 returned a Kd of 258 nM, a koff of 0.00428 s⁻¹ and an on-rate (kon) of 16600 M⁻¹ s⁻¹.
The matching figures for B6: 89.9 nM, 0.00186 s⁻¹ and 20700 M⁻¹ s⁻¹.
For the molecule B7, the Kd was 311 nM, the koff was 0.00696 s⁻¹ and the kon was 22400 M⁻¹ s⁻¹.
In turn, B8 showed a Kd of 1.8 nM, a koff of 0.000537 s⁻¹ and a kon of 300000 M⁻¹ s⁻¹.
The matching figures for B9: 2.3 nM, 0.000568 s⁻¹ and 247000 M⁻¹ s⁻¹.
Taken in the same sequence, the figures for B10 were 3.7 nM, 0.000967 s⁻¹ and 258000 M⁻¹ s⁻¹.
Taken in the same sequence, the figures for B11 were 2.9 nM, 0.000868 s⁻¹ and 304000 M⁻¹ s⁻¹.
Molecule B12 had a dissociation constant Kd of 6.7 nM, a koff of 0.00219 s⁻¹ and a kon of 327000 M⁻¹ s⁻¹.
The molecule B13 showed a Kd of 12.1 nM, an off-rate constant (koff) of 0.00491 s⁻¹ and an on-rate constant (kon) of 407000 M⁻¹ s⁻¹.
Taken in the same sequence, the figures for B14 were 18.7 nM, 0.0108 s⁻¹ and 577000 M⁻¹ s⁻¹.
The matching figures for B15: 5.4 nM, 0.00146 s⁻¹ and 272000 M⁻¹ s⁻¹.
B16 returned a Kd of 23.8 nM, a koff of 0.00991 s⁻¹ and a kon of 416000 M⁻¹ s⁻¹.
The matching figures for B17: 15.5 nM, 0.0083 s⁻¹ and 534000 M⁻¹ s⁻¹.
The matching figures for B18: 85 nM, 0.00602 s⁻¹ and 70800 M⁻¹ s⁻¹.
The matching figures for B19: 329 nM, 0.0167 s⁻¹ and 50800 M⁻¹ s⁻¹.
As for B20, the dissociation constant (Kd) amounted to 45.4 nM, the off-rate constant (koff) worked out at 0.00108 s⁻¹ and the kon came to 23800 M⁻¹ s⁻¹.
Taken in the same sequence, the figures for B21 were 98.3 nM, 0.00114 s⁻¹ and 11600 M⁻¹ s⁻¹.
In the case of B22, the Kd stood at 1260 nM, the dissociation rate constant (koff) was found to be 0.00646 s⁻¹ and the association rate constant (kon) turned out to be 5130 M⁻¹ s⁻¹.
The matching figures for B23: 928 nM, 0.00259 s⁻¹ and 2790 M⁻¹ s⁻¹.
Taken in the same sequence, the figures for B24 were 102 nM, 0.00125 s⁻¹ and 12200 M⁻¹ s⁻¹.
